Patent US6500431B1, “Inhibitors of angiogenesis and tumor growth” (University of Southern California, priority 1998, dated 2002)

Assays:
[1] = tested on: KS cell lines; experiment: Activity of recombinant Prosaposin chains on growth of KS cell lines; type: cell-based; conditions: FIG. 1
Description: In order to determine whether recombinant Saposin B has anti-angiogenic activity, the coding region of each of the Prosaposin chains was amplified from fibroblast cell lines and cloned into both bacterial (pGEX-KG) and eukaryotic (pcDNA 3.1His A) expression vectors.
The PCR products were digested with the respective restriction enzymes and the restriction products were inserted into the pGEX-KG vector for bacterial expression. pGEX-KG vector comprises a glutathione S transferase (GST)-tag at the […] of the insertion site so that a GST-fusion protein is expressed. The GST-tag is used to aid in purification of the recombinant protein. After elution from a glutathione-Sepharose 4B column, the GST-tagged proteins were incubated with thrombin (4 μg/ml) for 4 hr at room temperature (22-25° C.) in 50 mM Tris, pH 8.3, 3 mM CaCl2, 150 mM NaCl to cleave GST from the fusion protein. Free GST was removed from the preparation by passing the digested fusion protein through the glutathione-Sepharose 4B column.
By SDS-PAGE, the bacterial product was smaller than the eukaryotic protein. Because prokaryotically expressed proteins are not glycosylated, the difference in molecular weights probably represents the presence of carbohydrate in the eukaryotic protein. Recombinant proteins were then tested in KS, endothelial and control cell lines. Activity was found only in KS cell lines and endothelial cells.

[2] = tested on: KS Y-1 tumor; experiment: Established KS tumors in mice; type: in vivo
Procedure: FIG. 5: Effect of two daily doses of Saposin B on growth of an established KS Y-1 tumor. The arrow marks initiation of daily subcutaneous dosing.
In further experiments, KS tumors were allowed to grow for five days before treatment with Saposin B (1 and 5 mg/kg daily at a distal site from the timor). In control mice, tumors grew to a weight of 555±mg. […] Tumors excised at the conclusion of the experiments were also examined for apoptosis, blood vesel density, andmitotic index. […] Thus, contrary to the results in vitro, Saposin B has an inhibitory effect against non-KS tumors.

[3] = tested on: KS Y-1 cells; experiment: KS cell migration assay, fibronectin-coated transwell; type: cell-based; conditions: chemotaxis induced by VEGF or bFGF
Procedure: The assays were done in double chamber wells separated by […] membrane. Chemotaxis was induced by bFGF (25 ng/mL) in the lower chamber. Endothelial cells or KS cells (5×10^4/mL) were placed in the upper chamber in the presence and absence of test polypeptides. Taxol at 10 ng/mL was used as a known inhibitor of migration. Cell migration across the membrane was quantitated after an overnight incubation.
Angiogenesis is mediated by complex biochemical processes including degradation of the basement membrane under existing blood vessel endothelial cells, followed by proliferation and migration of endothelial cells, followed by formation of capillary loops, and recruitment of vascular smooth muscle cells to encase the newly formed vessels and provide stability. KS and endothelial cell migration in the presence of Saposin B was studied in transwell culture plates with 8 μm pore membranes (Costar, Cambridge, Mass.).
Briefly, wells were coated with fibronectin (25 μg/mL) overnight, and endothelial cells or KS cells were plated in the upper chamber with 100 μL of DMEM/0.4% FCS. 500 μL of DMEM/0.4% FCS was added to the lower chamber and incubated at 37° C. for one hour. The test polypeptides, at various concentrations, were added to the upper chamber, and chemotactic agents (VEGF or bFGF at 20 ng/mL) were added to the lower cell-culture chambers. The plates were incubated for 5 hr at 37° C. and the cells crossing the fibronectin-coated membrane were counted after wiping the cells off the membrane in the upper chamber with a cotton swab.
The cells that traversed the membrane were fixed with Diff-Quik stain according to the manufacturer's instruction (Dade Diagnostics Inc., Aguada, PR). The cells were counted under a microscope at 320× in four randomly selected fields. The experiments were done in duplicate and repeated at least three times.

[4] = tested on: Human bone marrow cells and peripheral blood mononuclear cells; experiment: Stem cell clonogenic assays in methylcellulose; type: cell-based
Procedure: Human bone marrow cells and peripheral blood mononuclear cells were harvested from a subject after the administration of high doses of cyclophosphamide and G-CSF. Stem cell clonogenic assays in methylcellulose were performed with IL-3, erythropoietin, and VEGF (10 ng/mL, and 100 ng/mL). VEGF was used to determine if there are progenitor cells with self replication capacity but without adherence to extracellular matrix such as fibronectin. It was also desirable to determine if Saposin B was toxic to endothelial cell specific progenitors for hematopoietic (myeloid or erythroid) lineage cells.
These colonies contained mixture of cells indicating more than one cell lineage generated in response to VEGF. The colonies also contained spindle shaped cells which mark the presence of VEGF receptors.

B1: Saposin B: polypeptide fragment of Prosaposin (positions 190 to 269), SEQ ID NO:2; recombinantly expressed (protein)
chain: GDVCQDCIQMVTDIQTAVRTNSTFVQALVEHVKEECDRLGPGMADICKNYISQYSEIAIQMMMHMQPKEICALVGFCDEVK
Question: Which “growth inhibition of KS cells” value [1] does the source give for B1 here?
Answer: Its value is “dose dependent growth inhibition”.

Question: What about the “apoptosis in excised tumors” value ([2]; 1 and 5 mg/kg daily) of the same molecule?
Answer: The value was “increase in apoptosis”.

Question: What about the “blood vessel density in excised tumors” value ([2]; 1 and 5 mg/kg daily) of the same molecule?
Answer: The value was “decrease in blood vessel density”.

Question: What about the “weights of excised tumors relative to controls” value ([2]; treatment from day five, 1 and 5 mg/kg daily at a distal site) of the same molecule?
Answer: The value was “approximately 23%”.

Question: And the “inhibition of KS cell migration” value [3]?
Answer: The value was “compete inhibition of cell migration”.

Question: What about the “cytotoxic effect on colonies developed with IL-3 or erythropoietin” value [4] of the same molecule?
Answer: The value was “no cytotoxic effect”.

Question: What about the “effect on colonies generated with VEGF” value ([4]; VEGF 10 ng/mL and 100 ng/mL) of the same molecule?
Answer: The value was “loss of spindle shaped cells”.
